# According to the RNAGym collection of RNA variant scans (doi:10.7554/elife.80360):
# B1: Hammerhead Ribozyme (parent)
# chain: ACCGGAUGUGCUUUCCGGUCUGAUGAGUCCGUGAGGACGAAACAG
# Variants of: B1
# Experiment: self-cleavage, relative activity (ratio to wild type); higher = more cleavage; co-transcriptional
row,Variant,self-cleavage
1,C38U G39U,0.3
2,G35C A41G,0.329
3,A1G C16G,0.778
4,G18A U24A,0.748
5,G4A U24A,0.682
6,U14G U28G,0.585
7,G18C A41U,0.36
8,U28G A40C,0.383
9,C3A A42U,0.356
10,G8U G36U,0.495
11,G22A A40C,0.371
12,C3G C38U,0.37
13,U12A A42G,0.252
14,C30G C43U,0.276
15,A1U U19C,0.617
16,U9C U28A,0.717
17,C3G,0.537
18,G5C U13A,1.25
19,G5A C29A,0.445
20,U28C G35U,0.431
21,C3U U24G,0.945
22,A6C A41G,0.374
23,A23U G36A,0.375
24,G17A C20U,0.442

row,Variant,self-cleavage
1,U14C G25A,0.305
2,A1G G22C,0.376
3,C3U G25A,0.368
4,G8C C16U,1.32
5,G8C C16G,0.511
6,C29A A42C,0.304
7,G17A G33A,0.794
8,C2G A6U,0.321
9,G5C U9A,0.595
10,G18U G36C,0.308
11,A1C A37U,0.34
12,A6C U24A,0.707
13,G17C G35A,0.535
14,G27U C43U,0.366
15,C16U C20G,0.307
16,G10C A44U,0.57
17,U21C G27C,0.557
18,G18A U28A,0.475
19,G5A C11G,1.27
20,U21A G39A,0.311
21,A26C G39C,0.45
22,A34G A44G,1.23
23,G31C G33U,0.879
24,U19C A34U,0.339

row,Variant,self-cleavage
1,A26U G35A,0.52
2,G10A A41G,0.359
3,A6C A37G,0.333
4,U13C A34G,0.776
5,C29A C30U,0.41
6,U32C,1
7,G36A,0.733
8,U28A A37G,0.325
9,G5A A41U,0.327
10,C11A G31A,1.21
11,U13G C43G,0.335
12,G17U A34C,0.46
13,G4C U28C,0.331
14,U24A G35C,0.851
15,C16A U24G,0.87
16,G17A C30A,0.561
17,G33C G35A,0.701
18,A6C U28C,0.604
19,A6C U28A,0.191
20,G8U C15U,1.05
21,G5A U28C,0.654
22,A6U U32G,0.559
23,U7A C20U,0.345
24,C2U A23G,0.385

row,Variant,self-cleavage
1,U7G A26C,0.265
2,C16U C29U,0.988
3,G8A A23C,0.396
4,A40G A41G,0.346
5,G35C A42G,0.26
6,U7A C11G,1.52
7,C30U A34G,0.961
8,U13A G39U,0.339
9,A34U G35A,0.638
10,C2A G31A,0.969
11,C15U G18A,0.554
12,G25U C29G,0.313
13,U14C U24G,0.816
14,C16G A23G,0.406
15,C16U G27U,0.551
16,U7A U13C,1.43
17,U7G G18C,0.464
18,C16U G45A,0.89
19,C2G U14G,0.309
20,C3A U12A,0.836
21,U19C C20G,0.289
22,C11U G35A,0.64
23,C15A C29U,0.753
24,A6G C29A,0.36

row,Variant,self-cleavage
1,C16G G35U,0.472
2,U13C A41C,0.247
3,C11G C20A,0.477
4,G5A G31C,1.32
5,G5A G31A,1.65
6,G4U U24A,0.442
7,U21C A40G,0.371
8,U12A C16U,1.1
9,C2G G36A,0.3
10,A6G C38G,0.448
11,C15A A41C,0.338
12,U19G G45U,0.389
13,G4A C11A,0.62
14,C15G G25U,0.315
15,U9G C15U,0.842
16,G17U G31A,0.918
17,G10C A41C,0.299
18,G39U G45U,0.445
19,G8U U32G,0.859
20,G31U A44U,0.94
21,U19A C20U,0.303
22,G22A A37C,0.304
23,G22A A37G,0.285
24,G5A C43A,0.34

row,Variant,self-cleavage
1,G39A C43G,0.264
2,C15U C29G,0.802
3,U12A G31U,1.12
4,G25A G33C,0.438
5,A23C G31A,0.68
6,C29G A44G,0.82
7,G18A G39U,0.303
8,A6G U28C,0.792
9,A6C A34G,0.722
10,C2A G8U,0.794
11,C29G U32C,0.708
12,A26C A44C,0.406
13,U21G G36A,0.382
14,U21A U24A,0.652
15,U9C C29U,0.831
16,C2U C11G,1.5
17,A1G A40G,0.388
18,A1G G39C,0.394
19,C11G A41C,0.366
20,U12A G18U,0.888
21,U12C G27C,0.669
22,U14C G33U,1.09
23,C16U G33C,1.17
24,C2G G25C,0.267

row,Variant,self-cleavage
1,G4U A37U,0.286
2,G8U G17U,0.964
3,U9A C30U,1.07
4,A26G G31A,0.327
5,A1U G8A,0.687
6,U12A U24C,0.727
7,C20U A26U,0.411
8,U19A U32G,0.33
9,U19A U32C,0.377
10,G18C G39U,0.372
11,U7G A23U,0.228
12,G35A A37C,0.364
13,G10C G36U,0.56
14,U9A A40C,0.49
15,U7A G17C,0.481
16,G39A,0.347
17,U13G G17C,0.572
18,C29A G36U,0.624
19,C29A G36A,0.665
20,C3G C20G,0.317
21,C2U G10U,1.39
22,G39U A40U,0.307
23,C20A C29U,0.357
24,C2G U19A,0.294

row,Variant,self-cleavage
1,G22A G36A,0.361
2,G5C C29U,0.504
3,U19A C43U,0.396
4,G4A G22U,0.302
5,G18U A41C,0.427
6,U28C A34G,0.934
7,U28C A34C,0.684
8,C3U A44U,0.592
9,G5U A44U,0.391
10,A40G A44C,0.304
11,U19A A37U,0.281
12,U9A U19G,0.398
13,G4U C16G,1.09
14,C16G U28G,0.592
15,C16A U32A,1.07
16,G18U G45A,0.379
17,U7G C16A,0.989
18,C20G G36A,0.31
19,A1U U28G,0.436
20,U13G A40C,0.454
21,G10A C38G,0.751
22,C2U A37G,1.01
23,U9C C20A,0.363
24,U32C G35A,0.83

row,Variant,self-cleavage
1,C15U A40U,0.307
2,G10A U28C,1.37
3,G35U A41C,0.305
4,G35U A41U,0.311
5,G10U U14G,0.709
6,U21A U28C,0.529
7,A1G G5C,0.628
8,A40C G45U,0.431
9,C16G U21A,0.349
10,G10U A42G,0.344
11,G10A G33A,1.21
12,C16U A41C,0.301
13,U9C G33C,1.18
14,U12C A23C,0.361
15,G5U C30U,0.967
16,A26G A41U,0.25
17,G4A G5A,0.54
18,G17C C43G,0.311
19,C11U U19A,0.32
20,G35A C43G,0.353
21,C30A A41G,0.347
22,G22C C43U,0.391
23,G5A G27C,0.61
24,G5C U28C,0.33

row,Variant,self-cleavage
1,G8C G35A,0.769
2,G10C C20U,0.487
3,C2G C38G,0.317
4,C2U C3G,0.319
5,C11G A26U,1.05
6,C11G A26C,0.725
7,G18C C38A,0.327
8,U13A A42G,0.344
9,U13A A42C,0.314
10,U14A A26U,0.65
11,U14C A40C,0.277
12,U7G A34U,1.53
13,C3A G45C,0.355
14,G8U U28C,1.23
15,C3A U21C,0.376
16,A6C G17U,0.37
17,U21G A34C,0.278
18,G5A U19C,0.565
19,C16A G31C,1.04
20,G4U G8A,0.47
21,U9G G17A,0.456
22,G4U A34C,0.296
23,U12G G33C,0.972
24,C3U A37G,0.799

row,Variant,self-cleavage
1,C38U A42C,0.396
2,G17A G36C,0.263
3,A1G C11U,1.33
4,U12A C38U,0.87
5,A26U U32C,0.819
6,U28A C30A,0.376
7,G27A A37C,0.743
8,C2G U28G,0.315
9,G35U G39A,0.331
10,C3A C29A,0.406
11,G5C G17C,0.268
12,C29U A42C,0.326
13,G5A A34U,1.06
14,G31U U32C,0.69
15,G8A G33C,0.949
16,U7A G45A,0.427
17,U19A C38A,0.313
18,A23G A26G,0.327
19,A1U A41G,0.414
20,G8A A42G,0.306
21,U13G C15G,0.715
22,G10C U13A,1.03
23,G10U G31U,0.736
24,G17C G36U,0.392

row,Variant,self-cleavage
1,U24A A40G,0.337
2,U24A A40U,0.359
3,U19C G45U,0.439
4,U24C A44C,0.503
5,U14A G35C,0.654
6,G5U U14G,1.29
7,C16U G35C,0.434
8,U13G A34C,0.79
9,C11A G39A,0.303
10,G35U G45U,0.421
11,C3U A26U,0.624
12,U12G A37G,1.02
13,A23C G39U,0.371
14,C43U A44U,0.346
15,U21A A42C,0.382
16,G18A A26G,0.331
17,C3G A26G,0.296
18,G22A C29A,0.342
19,G10U G39A,0.405
20,C43A A44G,0.304
21,C11U A40U,0.296
22,G5U A26G,0.332
23,G18U U28C,0.351
24,C11G G45U,0.928

row,Variant,self-cleavage
1,A1U A23U,0.306
2,U13A C43G,0.335
3,G33C C38A,0.493
4,C3U G18U,0.453
5,U7A A42G,0.216
6,U24C G39U,0.333
7,C3A G4U,0.282
8,U13C A44G,1.49
9,G8A U21C,0.742
10,G8A U21A,0.475
11,G4C G39U,0.293
12,G22C C29A,0.296
13,A23G G25A,0.311
14,C11G A40G,0.413
15,G5U U12G,0.806
16,A26G C29G,0.283
17,G18A A44G,0.702
18,G17A U21A,0.351
19,G4A A44U,0.435
20,A26C U28A,0.572
21,A1C A23U,0.362
22,U21C G25A,0.336
23,U9G G10C,0.987
24,A6U A37G,0.529

row,Variant,self-cleavage
1,C29G A34G,0.446
2,G25A G27C,0.355
3,G8C U32A,1.28
4,G36A G45C,0.422
5,U14A A34U,0.903
6,A6G G17A,0.389
7,G18A U32A,0.778
8,C2U G36U,0.488
9,C15A C30U,1.01
10,C30G G45A,0.403
11,C3G C29A,0.324
12,A6G G18U,0.468
13,C11U C15A,1.02
14,G18C G45A,0.393
15,G25C G36C,0.281
16,U19G G35C,0.308
17,A37G A44C,0.313
18,U28C,1.08
19,G8A C29G,0.667
20,G31A G39A,0.356
21,C11U U28C,0.954
22,G4A U9C,0.47
